PMC11850643 (Nature Communications, 2025)

Molecular target: the molecule itself
Assay: SEC

B1: full-length MmpL4 (M. tuberculosis) (natural protein)
chain: MSTKFANDSNTNARPEKPFIARMIHAFAVPIILGWLAVCVVVTVFVPSLEAVGQERSVSLSPKDAPSFEAMGRIGMVFKEGDSDSFAMVIIEGNQPLGDAAHKYYDGLVAQLRADKKHVQSVQDLWGDPLTAAGVQSNDGKAAYVQLSLAGNQGTPLANESVEAVRSIVESTPAPPGIKAYVTGPSALAADMHHSGDRSMARITMVTVAVIFIMLLLVYRSIITVVLLLITVGVELTAARGVVAVLGHSGAIGLTTFAVSLLTSLAIAAGTDYGIFIIGRYQEARQAGEDKEAAYYTMYRGTAHVILGSGLTIAGATFCLSFARMPYFQTLGIPCAVGMLVAVAVALTLGPAVLHVGSRFGLFDPKRLLKVRGWRRVGTVVVRWPLPVLVATCAIALVGLLALPGYKTSYNDRDYLPDFIPANQGYAAADRHFSQARMKPEILMIESDHDMRNPADFLVLDKLAKGIFRVPGISRVQAITRPEGTTMDHTSIPFQISMQNAGQLQTIKYQRDRANDMLKQADEMATTIAVLTRMHSLMAEMASTTHRMVGDTEEMKEITEELRDHVADFDDFWRPIRSYFYWEKHCYGIPICWSFRSIFDALDGIDKLSEQIGVLLGDLREMDRLMPQMVAQIPPQIEAMENMRTMILTMHSTMTGIFDQMLEMSDNATAMGKAFDAAKNDDSFYLPPEVFKNKDFQRAMKSFLSSDGHAARFIILHRGDPQSPEGIKSIDAIRTAAEESLKGTPLEDAKIYLAGTAAVFHDISEGAQWDLLIAAISSLCLIFIIMLIITRAFIAAAVIVGTVALSLGASFGLSVLLWQHILAIHLHWLVLAMSVIVLLAVGSDYNLLLVSRFKQEIGAGLKTGIIRSMGGTGKVVTNAGLVFAVTMASMAVSDLRVIGQVGTTIGLGLLFDTLIVRSFMTPSIAALLGRWFWWPLRVRSRPARTPTVPSETQPAGRPLAMSSDRLG
B1: binds.
